Data taken from patent publication US20150098945A1 (Daiichi Sankyo, published 2015).

Molecular target: T1, N-terminal FLAG-tagged cynomolgus monkey ROBO4, cynoROBO4-1 (pCI-FLAG-cynoROBO4-1) (cynomolgus monkey, UniProt Q8WZ75 28-1007 (human entry))
T1 chain: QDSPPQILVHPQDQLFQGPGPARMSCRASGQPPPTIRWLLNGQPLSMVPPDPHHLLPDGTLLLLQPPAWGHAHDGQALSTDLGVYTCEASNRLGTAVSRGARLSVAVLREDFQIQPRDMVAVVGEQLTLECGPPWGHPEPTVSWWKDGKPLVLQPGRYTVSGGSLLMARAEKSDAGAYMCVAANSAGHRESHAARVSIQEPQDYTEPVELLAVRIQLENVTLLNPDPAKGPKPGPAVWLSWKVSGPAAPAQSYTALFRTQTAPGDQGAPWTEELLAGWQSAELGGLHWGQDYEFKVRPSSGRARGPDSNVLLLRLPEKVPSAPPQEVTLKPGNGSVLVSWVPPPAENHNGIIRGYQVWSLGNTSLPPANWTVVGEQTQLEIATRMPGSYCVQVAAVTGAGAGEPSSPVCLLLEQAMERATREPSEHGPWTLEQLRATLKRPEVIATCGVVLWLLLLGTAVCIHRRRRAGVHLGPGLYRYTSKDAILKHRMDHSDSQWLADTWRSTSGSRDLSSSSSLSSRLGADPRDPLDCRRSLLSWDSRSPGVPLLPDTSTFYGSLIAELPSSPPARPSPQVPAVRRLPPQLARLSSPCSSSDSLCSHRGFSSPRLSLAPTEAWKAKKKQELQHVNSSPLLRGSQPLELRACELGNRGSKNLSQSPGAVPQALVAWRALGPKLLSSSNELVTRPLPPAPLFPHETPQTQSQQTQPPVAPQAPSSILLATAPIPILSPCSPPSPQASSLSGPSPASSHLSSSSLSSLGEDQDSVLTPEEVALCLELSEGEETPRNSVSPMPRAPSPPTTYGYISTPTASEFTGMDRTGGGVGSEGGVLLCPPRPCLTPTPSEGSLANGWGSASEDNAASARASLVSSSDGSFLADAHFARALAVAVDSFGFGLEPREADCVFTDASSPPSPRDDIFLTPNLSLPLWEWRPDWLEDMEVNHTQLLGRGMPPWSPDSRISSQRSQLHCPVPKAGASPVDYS
Assay: flow cytometry (FC500), HEK293 cells transfected with pCI-FLAG-cynoROBO4-1, antibody at 10 µg/mL, FITC goat anti-human IgG Fc; control histogram IgG (human IgG)

B1: humanized MAb1 antibody H-2143 (antibody, human IgG2, kappa, V domains shown)
VH: EVQLVESGGGLVQPGGSLRLSCAASGFTFSTYAMSWVRQAPGKRLEWVATISQGGTYTYYPDSVKGRFTISRDNAKNTLYLQMNSLRAEDTAVYYCARLIYYDYLDYWGQGTLVTVSS
VL: DIVMTQSPLSLPVTLGEPASISCRSSQSLENENKNLYLNWYLQKPGQSPQLLIYRVSNRFSGVPDRFSGSGSGTDFTLKISRVEAEDVGVYYCLQVTHVPWTFGPGTKVDIKR
notes: Human IgG2 / kappa constant regions; also called hMAb1-H4-type heavy chain + hMAb1-L2-type light chain
binding result: binds
